Laboratory results taken from patent US20180193423A1 (LONGEVITY BIOTECH, published 2018).
Where no end group is shown, it is not given here. [ ]: non-standard residue; d: D form. ACPC = 2-aminocyclopentanecarboxylic acid; β3hT = C[C@@H](O)[C@H](N)CC(=O)O; β3hN = NC(=O)C[C@H](N)CC(=O)O; β3hL = CC(C)C[C@H](N)CC(=O)O; β3hK = NCCCC[C@H](N)CC(=O)O; β3hV = CC(C)[C@H](N)CC(=O)O; β3hD = NC(CC(=O)O)CC(=O)O; β3hS = N[C@@H](CO)CC(=O)O

T1: VPAC1 receptor (UniProt P32241 31-457, limits assumed)
T1 sequence (looked up): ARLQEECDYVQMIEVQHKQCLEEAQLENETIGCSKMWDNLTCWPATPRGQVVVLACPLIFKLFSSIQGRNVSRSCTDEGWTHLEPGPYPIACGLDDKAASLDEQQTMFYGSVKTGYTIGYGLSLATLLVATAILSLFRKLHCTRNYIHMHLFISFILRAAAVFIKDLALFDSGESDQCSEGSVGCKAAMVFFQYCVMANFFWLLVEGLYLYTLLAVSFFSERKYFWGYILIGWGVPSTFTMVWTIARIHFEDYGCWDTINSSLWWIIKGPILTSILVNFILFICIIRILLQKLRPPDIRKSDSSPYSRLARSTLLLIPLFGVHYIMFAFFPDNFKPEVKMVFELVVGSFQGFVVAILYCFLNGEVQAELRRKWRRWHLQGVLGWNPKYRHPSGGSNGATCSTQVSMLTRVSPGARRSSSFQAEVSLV

T2: VPAC2 receptor (UniProt P41587 24-438, limits assumed)
T2 sequence (looked up): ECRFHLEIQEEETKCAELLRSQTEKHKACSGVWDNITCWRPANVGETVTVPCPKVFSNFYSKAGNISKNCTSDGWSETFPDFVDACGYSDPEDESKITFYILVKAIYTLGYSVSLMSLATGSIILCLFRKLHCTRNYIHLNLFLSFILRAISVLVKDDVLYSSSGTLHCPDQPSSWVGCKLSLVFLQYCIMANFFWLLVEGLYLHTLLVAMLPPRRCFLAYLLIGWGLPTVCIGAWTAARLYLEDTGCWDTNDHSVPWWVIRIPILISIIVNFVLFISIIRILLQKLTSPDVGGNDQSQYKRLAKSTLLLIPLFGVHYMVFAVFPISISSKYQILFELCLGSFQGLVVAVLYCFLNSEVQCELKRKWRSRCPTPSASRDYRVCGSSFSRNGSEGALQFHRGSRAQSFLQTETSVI


Target: T1, VPAC1 receptor
Experiment: cell-based or functional assay

Binder	EC 50 vpac1 (Molar), cell-based cAMP assay [µM]
HSDAVFTDNY[β3hT]RLR[β3hK]QLA[β3hV]KKY[β3hL]NAI[β3hL]N (not fully specified (C-terminus); printed as HSDAVFTDNYtRLRkQLAvKKYlNAIlN) [LBT-V101]	0.00217
H[dF]DA[β3hV]FTD[β3hN]Y[β3hT]RLR[β3hK]QLA[β3hV]KKY[β3hL]NAI[β3hL]N (not fully specified (C-terminus); printed as HfDAvFTDnYtRLRkQLAvKKYlNAIlN) [LBT-V129]	> 1
H[ACPC]DA[ACPC]FTDNY[β3hT]RLR[β3hK]QLA[β3hV]KKY[β3hL]NAI[β3hL]N (not fully specified (C-terminus); printed as HxDAxFTDNYtRLRkQLAvKKYlNAIlN) [LBT-V103]	0.000358
H[dF]DA[β3hV]FTDNY[β3hT]RLR[β3hK]QLA[β3hV]KKY[β3hL]NAI[β3hL]N (not fully specified (C-terminus); printed as HfDAvFTDNYtRLRkQLAvKKYlNAIlN) [LBT-V128]	0.0712

More lines, now with the values ahead:

EC 50 vpac1 (Molar), cell-based cAMP assay [µM]	Binder
298	H[β3hS]DA[β3hV]FTD[β3hN]Y[β3hT]RLR[β3hK]QLA[β3hV]KKY[β3hL]NAI[β3hL]N (not fully specified (C-terminus); printed as HsDAvFTDnYtRLRkQLAvKKYlNAIlN) [LBT-V106]
0.912	H[dF][β3hD]AVF[β3hT]DNY[β3hT]RLR[β3hK]QLA[β3hV]KKY[β3hL]NAI[β3hL]N (not fully specified (C-terminus); printed as HfdAVFtDNYtRLRkQLAvKKYlNAIlN) [LBT-V130]
0.00443	H[ACPC]DA[β3hV]FTDNY[β3hT]RLR[β3hK]QLA[β3hV]KKY[β3hL]NAI[β3hL]N (not fully specified (C-terminus); printed as HxDAvFTDNYtRLRkQLAvKKYlNAIlN) [LBT-V104]
619	H[dF]DAVFTDNY[β3hT]RLR[β3hK]QLA[β3hV]KKY[β3hL]NAI[β3hL]N (not fully specified (C-terminus); printed as HfDAVFTDNYtRLRkQLAvKKYlNAIlN) [LBT-V126]
0.0644	H[β3hS]DA[β3hV]FTDNY[β3hT]RLR[β3hK]QLA[β3hV]KKY[β3hL]NAI[β3hL]N (not fully specified (C-terminus); printed as HsDAvFTDNYtRLRkQLAvKKYlNAIlN) [LBT-V105]
> 1	HS[β3hD]AVF[β3hT]DNY[β3hT]RLR[β3hK]QLA[β3hV]KKY[β3hL]NAI[β3hL]N (not fully specified (C-terminus); printed as HSdAVFtDNYtRLRkQLAvKKYlNAIlN) [LBT-V107]
0.0893	H[dF]DA[ACPC]FTDNY[β3hT]RLR[β3hK]QLA[β3hV]KKY[β3hL]NAI[β3hL]N (not fully specified (C-terminus); printed as HfDAxFTDNYtRLRkQLAvKKYlNAIlN) [LBT-V127]

Target: T2, VPAC2 receptor
Experiment: cell-based or functional assay

Binder	EC50 vpac2 (Molar), cell-based cAMP assay [µM]
HSDAVFTDNY[β3hT]RLR[β3hK]QLA[β3hV]KKY[β3hL]NAI[β3hL]N (not fully specified (C-terminus); printed as HSDAVFTDNYtRLRkQLAvKKYlNAIlN) [LBT-V101]	8260
H[dF]DA[β3hV]FTD[β3hN]Y[β3hT]RLR[β3hK]QLA[β3hV]KKY[β3hL]NAI[β3hL]N (not fully specified (C-terminus); printed as HfDAvFTDnYtRLRkQLAvKKYlNAIlN) [LBT-V129]	0.989
H[ACPC]DA[ACPC]FTDNY[β3hT]RLR[β3hK]QLA[β3hV]KKY[β3hL]NAI[β3hL]N (not fully specified (C-terminus); printed as HxDAxFTDNYtRLRkQLAvKKYlNAIlN) [LBT-V103]	0.0796
H[dF]DA[β3hV]FTDNY[β3hT]RLR[β3hK]QLA[β3hV]KKY[β3hL]NAI[β3hL]N (not fully specified (C-terminus); printed as HfDAvFTDNYtRLRkQLAvKKYlNAIlN) [LBT-V128]	0.0503

Next, values leading:

EC50 vpac2 (Molar), cell-based cAMP assay [µM]	Binder
0.503	H[β3hS]DA[β3hV]FTD[β3hN]Y[β3hT]RLR[β3hK]QLA[β3hV]KKY[β3hL]NAI[β3hL]N (not fully specified (C-terminus); printed as HsDAvFTDnYtRLRkQLAvKKYlNAIlN) [LBT-V106]
0.609	H[dF][β3hD]AVF[β3hT]DNY[β3hT]RLR[β3hK]QLA[β3hV]KKY[β3hL]NAI[β3hL]N (not fully specified (C-terminus); printed as HfdAVFtDNYtRLRkQLAvKKYlNAIlN) [LBT-V130]
0.262	H[ACPC]DA[β3hV]FTDNY[β3hT]RLR[β3hK]QLA[β3hV]KKY[β3hL]NAI[β3hL]N (not fully specified (C-terminus); printed as HxDAvFTDNYtRLRkQLAvKKYlNAIlN) [LBT-V104]
0.344	H[dF]DAVFTDNY[β3hT]RLR[β3hK]QLA[β3hV]KKY[β3hL]NAI[β3hL]N (not fully specified (C-terminus); printed as HfDAVFTDNYtRLRkQLAvKKYlNAIlN) [LBT-V126]
0.716	H[β3hS]DA[β3hV]FTDNY[β3hT]RLR[β3hK]QLA[β3hV]KKY[β3hL]NAI[β3hL]N (not fully specified (C-terminus); printed as HsDAvFTDNYtRLRkQLAvKKYlNAIlN) [LBT-V105]
> 1	HS[β3hD]AVF[β3hT]DNY[β3hT]RLR[β3hK]QLA[β3hV]KKY[β3hL]NAI[β3hL]N (not fully specified (C-terminus); printed as HSdAVFtDNYtRLRkQLAvKKYlNAIlN) [LBT-V107]
> 1	H[dF]DA[ACPC]FTDNY[β3hT]RLR[β3hK]QLA[β3hV]KKY[β3hL]NAI[β3hL]N (not fully specified (C-terminus); printed as HfDAxFTDNYtRLRkQLAvKKYlNAIlN) [LBT-V127]

Target: T1, VPAC1 receptor
Experiment: cell-based or functional assay
Remark: another data set of the same source

EC50 of ligand mediated receptor internalization (chemiluminescent signal, PathHunter eXpress CHO-K1 VIPR1 cells) [µM]	Binder
0.0102	HSDAVFTDNY[β3hT]RLR[β3hK]QLA[β3hV]KKY[β3hL]NAI[β3hL]N (not fully specified (C-terminus); printed as HSDAVFTDNYtRLRkQLAvKKYlNAIlN) [LBT-V101]
